Ends that are not written are not given here.
Columns and labels:
Anti-HRP antibody(r) [1] = target: T1, Anti-HRP antibody(r); assay: labelled peptide on antibody immobilised on microplate; antigen HRP
T1 construct: Rabbit IgG, immobilised on a microplate; also called rabbit anti-HRP antibodies; anti-HRP antibody from a rabbit

[2] = target: T2, anti-Inf-A binding antibody; assay: SPR biosensor, anti-Inf-A antibody immobilised on Au substrate, BSA blocked
T2 construct: also called anti-Inf-A antibody; anti-inf A antibody
Source text: Referring to FIG. 17A, anti-Inf-A and anti-Inf-B binding antibodies were immobilized on an Au substrate using an SPR biosensor, and the blank surface of the substrate was blocked with a BSA solution to treat Inf-A and Inf-B.

[3] = target: T3, anti-Inf-B binding antibody; assay: SPR biosensor, anti-Inf-B antibody immobilised on Au substrate, BSA blocked
T3 construct: also called anti-Inf-B antibody

[4] = target: T2, anti-Inf-A binding antibody; assay: dissociation of labelled peptide from anti-Inf-A antibody on treatment with Inf-A; fluorescence
protein-A = protein-A (UniProt P38507 37-477); assay: labelled peptide on protein immobilised on microplate; fluorescence at bottom
BSA = target: T4, BSA (UniProt P02769 25-607); assay: as above
T4 construct: also called bovine serum albumin
T4 sequence (P02769 25-607 limits assumed): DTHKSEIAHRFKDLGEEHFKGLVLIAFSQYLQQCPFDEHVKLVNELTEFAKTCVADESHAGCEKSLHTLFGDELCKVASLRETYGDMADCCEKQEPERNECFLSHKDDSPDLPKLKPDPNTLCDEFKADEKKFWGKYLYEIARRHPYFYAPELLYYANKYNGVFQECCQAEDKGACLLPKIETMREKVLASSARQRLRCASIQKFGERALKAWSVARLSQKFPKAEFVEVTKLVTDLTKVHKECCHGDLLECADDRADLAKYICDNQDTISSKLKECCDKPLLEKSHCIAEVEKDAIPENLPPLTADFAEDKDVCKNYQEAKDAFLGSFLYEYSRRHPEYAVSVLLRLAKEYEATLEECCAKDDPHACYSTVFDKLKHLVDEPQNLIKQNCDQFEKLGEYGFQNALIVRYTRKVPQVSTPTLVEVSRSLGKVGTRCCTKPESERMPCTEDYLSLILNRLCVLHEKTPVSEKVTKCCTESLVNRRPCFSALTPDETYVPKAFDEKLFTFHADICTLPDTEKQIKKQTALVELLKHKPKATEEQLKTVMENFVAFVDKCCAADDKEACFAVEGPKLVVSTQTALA

C-reactive protein = target: T5, C-reactive protein (UniProt P02741 19-224); assay: as above
T5 construct: also called CRP
T5 sequence (looked up): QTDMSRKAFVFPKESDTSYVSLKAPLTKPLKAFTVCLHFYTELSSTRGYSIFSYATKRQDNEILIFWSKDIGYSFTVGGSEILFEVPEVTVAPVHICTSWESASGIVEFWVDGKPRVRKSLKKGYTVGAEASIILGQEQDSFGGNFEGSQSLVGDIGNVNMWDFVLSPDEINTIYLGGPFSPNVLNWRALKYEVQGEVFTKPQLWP

Anti-CRP antibody(r) = target: T6, Anti-CRP antibody(r); assay: labelled peptide on antibody immobilised on microplate; antigen CRP
T6 construct: also called rabbit IgG (CRP)

Anti-hCG antibody(m) = target: T7, Anti-hCG antibody(m); assay: labelled peptide on antibody immobilised on microplate; antigen hCG
T7 construct: also called mouse IgG (hCG)

Anti-HRP antibody(r) [5] = target: T1, Anti-HRP antibody(r); assay: labelled peptide on immobilised rabbit anti-HRP antibody, papain cleavage
Anti-HRP antibody(r) [6] = target: T1, Anti-HRP antibody(r); assay: fluorescence in solution against HRP concentration (0.3 to 100 µM); peptide on immobilised rabbit anti-HRP antibody
Source text: In this experiment, an anti-HRP antibody from a rabbit immobilized on a microplate was used as the binding antibody and HRP was used as the antigen.

[7] = target: T3, anti-Inf-B binding antibody; assay: dissociation of labelled peptide from anti-Inf-B antibody on treatment with Inf-B; fluorescence
Anti-HBsAg antibody(g) = target: T8, Anti-HBsAg antibody(g); assay: labelled peptide on antibody immobilised on microplate; antigen HBsAg
T8 construct: also called anti-HBsAg antibodies from goats; goat IgG (HBsAg)

B1: H2 peptide (peptide)
peptide: VYYCAREPTGTGIYFDVWGK
modifications: not fully specified (N-terminus)
notes: Synthetic 20-mer homologous to the FR3 or FR4 region of the heavy chain; The label differs between experiments; also called H2 switching peptide; fourth peptide compound H2
Question: Which results are given for B1?
Answer: change (%) of fluorescence at bottom (B) of microplate (Anti-HRP antibody(r) [1]): -85.2%; change (%) of fluorescence in solution (S) (Anti-HRP antibody(r) [1]): 698%; fluorescence intensity at bottom (B) of microplate after antigen binding (Anti-HRP antibody(r) [1]): 1810; fluorescence intensity at bottom (B) of microplate before antigen binding (Anti-HRP antibody(r) [1]): 122000; fluorescence intensity in solution (S) after antigen binding (Anti-HRP antibody(r) [1]): 18100; fluorescence intensity in solution (S) before antigen binding (Anti-HRP antibody(r) [1]): 2270; Kd [2]: 37 µM; Kd [3]: 56 µM; relative change in fluorescence signal [4]: 352%; binding result (protein-A): no binding; binding result (BSA): no binding; binding result (C-reactive protein): no binding; change (%) of fluorescence at bottom (B) of microplate (Anti-CRP antibody(r)): -39.5%; change (%) of fluorescence in solution (S) (Anti-CRP antibody(r)): 677%; fluorescence intensity at bottom (B) of microplate after antigen binding (Anti-CRP antibody(r)): 22200; fluorescence intensity at bottom (B) of microplate before antigen binding (Anti-CRP antibody(r)): 22200; fluorescence intensity in solution (S) after antigen binding (Anti-CRP antibody(r)): 16300; fluorescence intensity in solution (S) before antigen binding (Anti-CRP antibody(r)): 2100; change (%) of fluorescence at bottom (B) of microplate (Anti-hCG antibody(m)): -88.5%; change (%) of fluorescence in solution (S) (Anti-hCG antibody(m)): 416%; fluorescence intensity at bottom (B) of microplate after antigen binding (Anti-hCG antibody(m)): 23300; fluorescence intensity at bottom (B) of microplate before antigen binding (Anti-hCG antibody(m)): 23300; fluorescence intensity in solution (S) after antigen binding (Anti-hCG antibody(m)): 8540; fluorescence intensity in solution (S) before antigen binding (Anti-hCG antibody(m)): 1650; decrease of fluorescence intensity at the bottom of the microplate after papain treatment (Anti-HRP antibody(r) [5]): 58.7%; increase of fluorescence intensity in the solution after papain treatment (Anti-HRP antibody(r) [5]): 2360%; Kd (Anti-HRP antibody(r) [6]): 3.11 µM; relative change in fluorescence signal [7]: 199%; change (%) of fluorescence at bottom (B) of microplate (Anti-HBsAg antibody(g)): -36.1%; change (%) of fluorescence in solution (S) (Anti-HBsAg antibody(g)): 412%; fluorescence intensity at bottom (B) of microplate after antigen binding (Anti-HBsAg antibody(g)): 18800; fluorescence intensity at bottom (B) of microplate before antigen binding (Anti-HBsAg antibody(g)): 29400; fluorescence intensity in solution (S) after antigen binding (Anti-HBsAg antibody(g)): 9140; fluorescence intensity in solution (S) before antigen binding (Anti-HBsAg antibody(g)): 1780
